Test results as given in the nanobody polyreactivity screen of Harvey et al. (2022).

Test: yeast display, Sf9 membrane polyspecificity reagent, FACS + sequencing; frameworks hold sequencing errors
How it was run: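 Nanobodies from a synthetic yeast display library (Saccharomyces cerevisiae BJ5465), induced 36–48 hours with galactose, were stained 1 hour at 4 °C with 10% biotinylated, detergent-solubilized Sf9 membrane reagent, enriched on streptavidin microbeads, then FACS-sorted. Anti-HA (expression) and streptavidin (reagent binding) fluorescence set low and high (top ~1%) gates. Polyreactivity labels come from the gate of origin. Genes were colony-PCR amplified, MiSeq 2 × 250 sequenced and filtered by CDR length.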
For “QVQRVESGGGLVQAGGSLRLSCAASGRTFAGYAMGWYRQAPGKERELVAAITTGGSTKYADSVKGRLTISRDNAKNTVFLQRTSLKPEDTAVYYCNARKRVYSGNTLMYYWGQGTQVTVSS”, the “polyreactivity (PSR sort gate)” value was “high polyreactivity”.
With “QVQRVESGGGLVQAGGSLRLSCAASGRTFLQYAMGWYSQAPGKVREFVAAINWSGGSTYYAASVKRRFTISRDNAKNTVYLPMHSLKPEDTAVYYCAARRVYLGEYDYWGQGTQVTVSS” the “polyreactivity (PSR sort gate)” value was “high polyreactivity”.
With “QVQRVESGGGLVQAGGSLRLSCAASGRTFRYYAMGWYRQAPGKERELVAAITSGGSTSYADSVKGRFTISRDNAKNTVYLQMNSLKPEDTAVYYCAAVPAGLWATYPQFRYGYWGQGTQVTVSS” the “polyreactivity (PSR sort gate)” value was “high polyreactivity”.
For “QVQRVESGGGLVQAGGSLRLSCAASGRTFSKNAMGRTRQAPGQETELVAAISGSGGSTYYADSVKGRFTISRDNAKNTVYLQMNSLKPEDTAVYYCADRYTVRRSGYWGQGTQVTVSS”, the “polyreactivity (PSR sort gate)” value was “high polyreactivity”.
With “QVQRVESGGGLVQAGGSLRLSCAASGRTFYPYLMGWYRQSPGKERELVARIRWSGSSTYYADSVKGRFTISRDNAKNTVYFQMNSLKPEDTAVYYCNARPSWYVFGSSVHSGMGYWGQGTQVTVSS” the “polyreactivity (PSR sort gate)” value was “high polyreactivity”.
For “QVQRVESGGGLVQAGGSLRLSCAASGSIFFDGNAMGWYRQAPGQERELVAAISVSGGSTYYADSVKGRFTISRDNAKNTVYLQMNSLKPEDTAVYYCAKYPSKSYVPGDYWGQGTQVTVSS”, the “polyreactivity (PSR sort gate)” value was “low polyreactivity”.
In the case of “QVQRVESGGGLVQAGGSLRLSCAASGSIFGPNAMGWYRQAPGKERELVAAITLSGGSTYYADSVKGRFTISRDNAKNTVYLQMNSLKPEDTAVYYCAAEYYQTTYVWWTYDYYWGQGTQVTVSS”, the “polyreactivity (PSR sort gate)” value is reported as “low polyreactivity”.
In the case of “QVQRVESGGGLVQAGGSLRLSCAASGSIFLSYDMGWYRQAPGKERELVAAITQSGGSTYYADSVKGRFTISRDNAKNTVYLQMNSLKPQDTAVYSCAVRVSGPRGYDYEYWGQGTQVTVSS”, the “polyreactivity (PSR sort gate)” value is reported as “low polyreactivity”.
In the case of “QVQRVESGGGLVQAGGSLRLSCAASGSIFSSNVMGWYRQAPGKEREIVAAITTGGSTNYADSVKGRFTISRDNAKNTVYLQMYCLKREDTAFYYCSFSYGYYLFVDWGYGCWGQGSQVTVSS”, the “polyreactivity (PSR sort gate)” value is reported as “low polyreactivity”.
In the case of “QVQRVESGGGLVQAGGSLRLSCAASGSIFYQYAMGWYRQAPGKEREVVAAITIGGSTNYADSVKGRFTISRDNAKNTVYLQMNSLKPEDTAVYYCNADKNWYGHEYDYWGQGTQVTVSS”, the “polyreactivity (PSR sort gate)” value is reported as “low polyreactivity”.
With “QVQRVESGGGLVQAGGSLRLSCAASGSIIAGYPMGWSRQAPGKERELVAGIRRGGSTNYADSVKGRFTISRDNAKKTVYLQMNSLKPEDTAVYYCNAQRTRSYVLRTFDYWGQGTQVTVSS” the “polyreactivity (PSR sort gate)” value was “high polyreactivity”.
In the case of “QVQRVESGGGLVQAGGSLRLSCAASGSIIQPYARGWYRQSPGKERELVAAIRSSTGSTYYADSVKGRFTISRDIAKNTVYLQQNSLKPEDSAVYYCARRRWSYVRGYSSGMYYWGQGTQVTVSS”, the “polyreactivity (PSR sort gate)” value is reported as “high polyreactivity”.
In the case of “QVQRVESGGGLVQAGGSLRLSCAASGSTFPRNAMGWYRQAPGKEREFVAAISYSGGRTYYADSVKGRFTISRDNAKNTVYLQMNSLKPEDTAVYYCAAQPYSHVRGKSYGYWGQGTQVTVSS”, the “polyreactivity (PSR sort gate)” value is reported as “high polyreactivity”.
In the case of “QVQRVESGGGLVQAGGSLRLSCAASGSTLYGYALGWYRQAPGKERELVAAISVSGGRTYYADSVKGRFTISRDNAKNTVYLQMNSLKPEDTAVYYCAADGLSPYSGDYWGQGTQVTVSS”, the “polyreactivity (PSR sort gate)” value is reported as “high polyreactivity”.
With “QVQRVESGGGLVQAGGSLRLSCAGTGSIFTSNAMRWYRQARGNERELVASISYISGGTYYADSVKGRFTISRDNAKNTVYLQMNSLKPEDTAVYYCAAEQTWGSCQYDPRTYDYWGQGNQVTVSS” the “polyreactivity (PSR sort gate)” value was “low polyreactivity”.
With “QVQRVESGGGLVQAGGSLRLSSPASGRMGWYRQAPGKERELVAAITSGDRTNYADSVKGRFTISRDNAKNTVYLQMNSLKPEDTAVYYCATERSWYHGFIDPRGYWGQGTQVTVSS” the “polyreactivity (PSR sort gate)” value was “low polyreactivity”.
For “QVQRVESGGGLVQAGGSLRLTCAPSGFIFYYYAMGWYRQAPGKEMQLVAAIDSGGSTYADSVNGRFTISRDNAKNTVYLQMTSLKPEDTAVYYCAADYYLPWYPDYDYWGQGTQVTVSS”, the “polyreactivity (PSR sort gate)” value was “low polyreactivity”.
With “QVQRVESGGGLVQARGSLRLSCAASGRIFTKYAMGWYRQAPGKVRELVAGITSRGGSTYYADSVKGRFTISRDIANNTGYLQMNSLKPEDTAVYYCNAYRVGRYDYWGQGTQVTVSS” the “polyreactivity (PSR sort gate)” value was “high polyreactivity”.
With “QVQRVESGRGLFHAGGSLRLSCAASGSIFIWNDMGWYRQAPGKERELVAAITISAGSTSYADSVKGRFTISRDNAKNTVYLQMKSLKPEDTAVYYCAAASWLGAYGYEYDYWGQGTQVTVSS” the “polyreactivity (PSR sort gate)” value was “low polyreactivity”.
In the case of “QVQRVESRGGLVQAGGTLRLSCAASGSTFGVNAKGCYSQAPGKDRELVATISRGTSTNYADSVKGRFTISRDNAKNTVYLQMNSLKPEDTAVYYCAKRVFYPGAYRYYYCGQGTQVTVSS”, the “polyreactivity (PSR sort gate)” value is reported as “high polyreactivity”.
With “QVQVLESGGGLFQAGGRLRLSCAASGRTFRSYAMGWYRQAPGKERELVAAIRRGGSTNYADSVKGRFTISRDNAKNTVYLQMNSEKPEDTAVYYCAARGWSYRSVGYMDYWGQGTQVTVSS” the “polyreactivity (PSR sort gate)” value was “high polyreactivity”.
For “QVQVLESGGGLVQAGGSLRLSCAASGRTFYWNAMGWYRQAPGKERELDAVISQSGGSTYYADSVKGRFTISRDNAKNTVYLQMNSLQPEDTAVYYCNKATRHHFYYWGQGTQVTVSS”, the “polyreactivity (PSR sort gate)” value was “high polyreactivity”.
For “QVQVVESGAGEVQAGGSLRLSCAASGSIFPFNAMGWYRQAPGKERELVAAISVNGGSTYYADSVKGRFTISRDNAKNTVYIQMNSLKPEDTAVYYCNTGGTFLDWVRRPFGFGYWGQGTQVTVSS”, the “polyreactivity (PSR sort gate)” value was “low polyreactivity”.
In the case of “QVQVVESGGALVQAGGSLRLSCAASGSTFYNYAMGWYRPAPGKERELVAAISSGGGITYYADSVKGRFTISRDNAKNNVYVQMNSLKPEDTAFYYCNARRKYLGYNYWGQGTQVTVSS”, the “polyreactivity (PSR sort gate)” value is reported as “high polyreactivity”.
With “QVQVVESGGGFVQAGGSLRISCAASGRIFATYAMGWYRQAPGKERELVAAISDSGGRTYYADSVKGRFTISRDTAKNTVYFQMNSLKPEDTAVYYCNARGTRASRYDYWGQGTQVTVSS” the “polyreactivity (PSR sort gate)” value was “high polyreactivity”.
With “QVQVVESGGGIVHAEGSLRLSCAPSGLTFPVYAMVWYRQAPRKERELVAAISKSGGNTYYADSVKGRFTISRDNAKNTVYLQMNSLKPEDTAVYYCAAGYLSGNYARYGYWGQGTQVTVSS” the “polyreactivity (PSR sort gate)” value was “high polyreactivity”.
For “QVQVVESGGGIVQAGGSLGLSCAASGSNFSYNAMGWYRQAPRKERELVATISNTDSTNYADSVKGRFTISRDNAKNTVYLQMNSLKPEDTAVYYCAVVSARIDYEYWGQGTQVTVSS”, the “polyreactivity (PSR sort gate)” value was “low polyreactivity”.
With “QVQVVESGGGLVHAGGSHRLSCAASGSIFPPYSMGWYRQAPGKEREFVAAISYSGGSTYYADSVKGRFTISRDNGKHTVYFQMNSLKPEDTAVYYCGADRYGFYLESYYWGQGTQGTVSS” the “polyreactivity (PSR sort gate)” value was “low polyreactivity”.
With “QVQVVESGGGLVKAGGSLRLSCDASGSTFRDYVMGWYRQAPGKERELVAAITGSGSSTYYADSVKGRFTISRDNAKNSVYLQMNSLKPEDTAVYYCAATWVVSYRVNRSYYWGQGTQVTVSS” the “polyreactivity (PSR sort gate)” value was “low polyreactivity”.
For “QVQVVESGGGLVQAGGCLRLSCAASGVIFVGYAMGWYRQAPGKERELVAAISWSGGSTYYADSVKGRFTISRDKAKNTVYLQMNSLKPEDTAVYYCAAYLYGYEYWGQGTQVTVSS”, the “polyreactivity (PSR sort gate)” value was “high polyreactivity”.
In the case of “QVQVVESGGGLVQAGGRLRLSFAASGFTFESYAMGWYRQAPGKERELVPAISDGGGDTYYADSVKGRFTISRDNAKNTVYLQMNSLKPEDTAVYYCAAEWDGNWSRCAGGYDYWGQGTQVTVSS”, the “polyreactivity (PSR sort gate)” value is reported as “low polyreactivity”.
With “QVQVVESGGGLVQAGGSLGLSCAASGFTFGRYARGWYRQAPGKERELVAAISRGGSTYYADSVKGRFTISRDNAMYTDYLQMNSLKTEDTAVYYCNAAGLPTQLYYWGQGTQVTVSS” the “polyreactivity (PSR sort gate)” value was “high polyreactivity”.
In the case of “QVQVVESGGGLVQAGGSLGLSCAASGRTFRVYAMGWYRQAPGKERELVASITRGGGTYADSVKGRFTISRDNAKNTVYLQMNCLKPEDTAVYYCNARWQRSTGGRQRYDYWGLGTQVTVSS”, the “polyreactivity (PSR sort gate)” value is reported as “high polyreactivity”.
For “QVQVVESGGGLVQAGGSLRISCAASGRISVVHAMGWYRQAPGKERELVATINSGGSTYADSVKGRFTNSRDNAKNNVFFQMISQIPEDTAFYYCSARTFRISRLDFWGQCTQVTVSS”, the “polyreactivity (PSR sort gate)” value was “high polyreactivity”.
For “QVQVVESGGGLVQAGGSLRLSCAASGFIFRRYAMGWYRQAPGKEMELVAAINYSGGSTYYADSVKGRFTISRDNEKNTVYLQMKSLKPEDNAVYYCNAYGLRYYEYDYWGQGTQVTVSS”, the “polyreactivity (PSR sort gate)” value was “low polyreactivity”.
In the case of “QVQVVESGGGLVQAGGSLRLSCAASGFTIFSYAMGWYRQAPGKERELVAAISRRGGSTYYADSVKGRFTISRDNAKNTVYLQMNSLKPEDTAVYYCNAKWTSHGTYAEDYWGQGTQVTVSS”, the “polyreactivity (PSR sort gate)” value is reported as “high polyreactivity”.
In the case of “QVQVVESGGGLVQAGGSLRLSCAASGGTDYYYAMGWYRQAPGKERELFAAITESGGSTYYADSVKARYTISRDNAKTTVYVQMNSLKPEDTAVYYCNADWRRWYIFSYDYWGQGTQVTVSS”, the “polyreactivity (PSR sort gate)” value is reported as “low polyreactivity”.
For “QVQVVESGGGLVQAGGSLRLSCAASGLISWLYVMGWYRQAPGKERELVAAIRYSGGRTYYADSVKGRFTISRDNAKNTDYLQMHSLKPEDTAVYYCNALPWALYDSTSIYYYWGQGTQVTVSS”, the “polyreactivity (PSR sort gate)” value was “low polyreactivity”.
With “QVQVVESGGGLVQAGGSLRLSCAASGRIFNYNAMGWYRQAPGKERELVAAITRSGGSTYYADSVKGRFTISRDNAKNTVFLQMNSLKPEDTAVYYCNKRYIPWAYDYWGQGTQVTVSS” the “polyreactivity (PSR sort gate)” value was “high polyreactivity”.
With “QVQVVESGGGLVQAGGSLRLSCAASGRILYPYTMGWYRQAPGKERELVAAISYSGGRTYYADSVKGRFTISRDNAKNTVYLQMNRLKPEDTAVYYFNAVFRVRGASQFDYWGQGTQVTVSS” the “polyreactivity (PSR sort gate)” value was “high polyreactivity”.
For “QVQVVESGGGLVQAGGSLRLSCAASGRTFFFYAMGWYRQAPGKERELVAGITSRGTRTYYADSVKGRFTISRDNAKNTVYLQMNSLKPEDTAVYYCATDDSRDWLNYWGQGTQVTVSS”, the “polyreactivity (PSR sort gate)” value was “low polyreactivity”.
